One may read the stoichiometry N as a count of units in the complex or per binding partner.

The target of this experiment is polyketide synthase 16 (Pks16) (D. discoideum (endogenous in AX2-214 cells)) (UniProt Q869W9). The experiment can be described thus: cryo-EM structure.

In turn, “polyketide synthase 16 (Pks16), Q869W9 1-2603” came in with a stoichiometry N of 2.

For the origin of these results see paper doi:10.1101/2025.03.12.642832.
